Source: patent publication EP4667483A1 (JCR Pharmaceuticals Co., Ltd., dated 2024)
One block for each binder: values may come before it. Numbered stars: 1 amine (or outer) side, 2 acyl side, 3 side chain; on linkers, the order of the positions; unused ones are H or OH. Bridge positions count the residues as written; N and C are the ends. Square brackets hold non-standard residues; d marks the D form. * marks the point of attachment. F4aao = 4-(carboxymethoxy)-L-phenylalanine, O=C([C@H](Cc1ccc(OCC(=O)[*:3])cc1)N[*:1])[*:2]; X4 = 4‑(carboxymethyl)piperazine‑1‑carbonyl, O=C(O)CN1CCN(C(=O)*)CC1; NH(1-deoxy-D-glucityl) = OC[C@@H](O)[C@@H](O)[C@H](O)[C@@H](O)CN*; PEG4c = amino-tetraoxa (PEG4) carboxylic acid spacer; Phe(3-COOH) = N[C@@H](Cc1cccc(C(=O)O)c1)C(=O)O; NMePhe(3-Cl) = CN[C@@H](Cc1cccc(Cl)c1)C(=O)O; Piperazinyl(4-CH2COOH) = O=C(O)CN1CCN(*)CC1; NMeY = CN[C@@H](Cc1ccc(O)cc1)C(=O)O

Experiments:
[1] = target: T1, human transferrin receptor (hTfR) (human, UniProt P02786 89-760); assay: SPR, Biacore T200, pH 7.4, hTfR captured by anti-His antibody on CM3 chip, single-cycle kinetics
T1 construct: also called human TfR; TfR1
T1 sequence (P02786 89-760 limits assumed): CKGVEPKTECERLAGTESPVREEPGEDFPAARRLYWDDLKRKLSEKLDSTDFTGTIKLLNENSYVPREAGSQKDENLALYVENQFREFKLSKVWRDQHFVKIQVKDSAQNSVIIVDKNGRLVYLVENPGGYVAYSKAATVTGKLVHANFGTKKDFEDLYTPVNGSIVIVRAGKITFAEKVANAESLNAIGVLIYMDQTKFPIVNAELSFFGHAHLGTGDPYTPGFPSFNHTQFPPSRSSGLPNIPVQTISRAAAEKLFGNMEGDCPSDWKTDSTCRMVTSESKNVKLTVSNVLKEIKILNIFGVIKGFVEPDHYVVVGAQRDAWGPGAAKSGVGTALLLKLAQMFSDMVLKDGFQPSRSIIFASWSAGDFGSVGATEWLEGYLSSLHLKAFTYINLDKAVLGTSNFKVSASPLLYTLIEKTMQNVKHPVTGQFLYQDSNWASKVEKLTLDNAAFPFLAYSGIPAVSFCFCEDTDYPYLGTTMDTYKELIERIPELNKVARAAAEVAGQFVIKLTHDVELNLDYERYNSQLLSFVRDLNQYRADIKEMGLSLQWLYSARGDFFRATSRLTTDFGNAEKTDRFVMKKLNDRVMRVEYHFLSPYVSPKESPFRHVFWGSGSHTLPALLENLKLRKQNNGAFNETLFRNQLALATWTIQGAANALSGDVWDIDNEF

[2] = target: T2, human transferrin receptor (hTfR) (human, UniProt P02786 89-760); assay: SPR, pH 7.4
T2 construct: a His tag is implied by the NTA chip and the anti-His capture; also called human TfR; TfR1
T2 sequence (P02786 89-760 limits assumed): as above

[3] = target: T2, human transferrin receptor (hTfR); assay: SPR, pH 6.0
[4] = target: T3, human transferrin receptor (hTfR) (human, UniProt P02786 89-760); assay: SPR, Biacore T200, hTfR captured by anti-His antibody on CM3 chip, pH 7.4
T3 construct: also called human TfR; TfR1
T3 sequence (P02786 89-760 limits assumed): as above

[5] = target: T3, human transferrin receptor (hTfR); assay: SPR, Biacore T200, hTfR immobilised on NTA chip, pH 6.0
[6] = target: T3, human transferrin receptor (hTfR); assay: SPR; ratio of KD at pH 6.0 to KD at pH 7.4
[7] = target: T3, human transferrin receptor (hTfR); assay: SPR; ratio of koff at pH 6.0 to koff at pH 7.4
[8] = target: T3, human transferrin receptor (hTfR); assay: SPR; ratio of KD at pH 6.0 to KD at pH 7.4; remark: listed apart in the source
[9] = target: T3, human transferrin receptor (hTfR); assay: SPR; ratio of koff at pH 6.0 to koff at pH 7.4; remark: listed apart in the source
[10] = target: T3, human transferrin receptor (hTfR); assay: SPR, Biacore T200, hTfR captured by anti-His antibody on CM3 chip, pH 7.4; remark: listed apart in the source
[11] = target: T3, human transferrin receptor (hTfR); assay: SPR, Biacore T200, hTfR immobilised on NTA chip, pH 6.0; remark: listed apart in the source
[12] = target: T2, human transferrin receptor (hTfR); assay: SPR, pH 7.4; remark: listed apart in the source
[13] = target: T2, human transferrin receptor (hTfR); assay: SPR, koff pH 6.0 / koff pH 7.4
[14] = target: T2, human transferrin receptor (hTfR); assay: SPR, KD pH 6.0 / KD pH 7.4
[15] = target: T2, human transferrin receptor (hTfR); assay: SPR, pH 6.0; remark: listed apart in the source

- Kd [2]: 0.861 nM
- Kd [3]: 7.47 nM
B2: 894_0610 (SEQ ID NO: 61) (peptide)
peptide: AVXVXNYYIIKRYXC
modifications: 3 MeF3C; 5 3Imp; 14 MeY; chloroacetyl-Ala1 cyclised to Cys15; linker PEG4c after Cys15; terminus -NH2

- Kd [12]: 4.75 nM
- dependency koff pH6.0/7.4 [13]: 12.5
- dependency KD pH6.0/7.4 [14]: 3.12
- Kd [15]: 14.8 nM
Binder: {CH2CO}-AV[NMePhe(3-Cl)]VWNY[F4aao](Piperazinyl(4-CH2COOH))IIK(X4)QF[NMeY]C-{PEG4c-NH2} (thioether N-15) [894_0511 (SEQ ID NO: 38)]

- Kd [2]: 8.74 nM
- Kd [3]: 32.3 nM
B6: 894_3434 (SEQ ID NO: 64) (peptide)
peptide: AVXVWNYXIIRRYXC
modifications: 3 MeF; 8 F4aao(PEG8Me); 14 MeY; chloroacetyl-Ala1 cyclised to Cys15; linker G-KN3 after Cys15; terminus -NH2
notes: The linker G-KN3 (Gly, N6-diazo-L-lysine) follows Cys15; whether the listing entry holds these two residues cannot be seen here

- Kd [1]: 1040 nM
B7: 894_3493 (SEQ ID NO: 198) (peptide)
peptide: AVXVWNRYIIRRYXC
modifications: MeF at 3; MeF4COO at 14; N-terminal Ala chloroacetylated and cyclised by thioether to Cys 15; linker G-de-de-de-ds-ds-KN3-NH2 on Cys 15 (de = D-Glu, ds = D-Ser, KN3 = azido-lysine, C-terminal amide)
notes: Cyclic peptide with linker

- dependency KD pH6.0/7.4 [8]: 1.89
- dependency koff pH6.0/7.4 [9]: 5.72
- Kd [10]: 3.34 nM
- Kd [11]: 6.32 nM
B9: 894_0518 (SEQ ID No. 72) (peptide)
peptide: {CH2CO}-AV[NMePhe(3-Cl)]VWNY[F4aao]IIQR[Phe(3-COOH)][NMeY]C-PEG4c
modifications: thioether N-15
notes: As printed: A-V-MeF3C-V-W-N-Y-F4aao-I-I-Q-R-F3COO-MeY-C, linker PEG4c

Second part, the binder before the results:

B1: 894_3495 (SEQ ID NO: 199) (peptide)
peptide: AVXVWNRYIIRRYXC
modifications: MeF at 3; MeY at 14; N-terminal Ala chloroacetylated and cyclised by thioether to Cys 15; linker G-de-de-de-ds-ds-KN3-NH2 on Cys 15 (de = D-Glu, ds = D-Ser, KN3 = azido-lysine, C-terminal amide)
notes: Cyclic peptide with linker
- Kd [1]: 531 nM

B3: 894_0592 (SEQ ID No. 118) (peptide)
peptide: AVXVXNYYIIKRYXC
modifications: not fully specified; MeF at 3; MeW at 5; MeF4COO at 14; cyclic: chloroacetylated N-terminal Ala 1 joined to Cys 15; linker PEG4c on C-terminus
notes: As printed: A-V-MeF-V-MeW-N-Y-Y-I-I-K-R-Y-MeF4COO-C, linker PEG4c
- Kd [4]: 1.11 nM
- Kd [5]: 4.31 nM
- dependency KD pH6.0/7.4 [6]: 3.88
- dependency koff pH6.0/7.4 [7]: 4.21

B4: 894_0531 (SEQ ID No. 81) (peptide)
peptide: AVXVWNYXIIQRXXC
modifications: MeF3C at 3; F4OMe at 8; Eva at 9; F3COO at 13; MeF3COO at 14; cyclic: chloroacetylated N-terminal Ala 1 joined to Cys 15; linker PEG4c on C-terminus
notes: As printed: A-V-MeF3C-V-W-N-Y-F4OMe-Eva-I-Q-R-F3COO-MeF3COO-C, linker PEG4c
- dependency KD pH6.0/7.4 [8]: 4.91
- dependency koff pH6.0/7.4 [9]: 13.5
- Kd [10]: 1.87 nM
- Kd [11]: 9.19 nM

B5: 894_0530 (SEQ ID No. 80) (peptide)
peptide: AVXVWNYXIIQRXXC
modifications: MeF3C at 3; F4OMe at 8; Eva at 9; F3COO at 13; MeF4COO at 14; cyclic: chloroacetylated N-terminal Ala 1 joined to Cys 15; linker PEG4c on C-terminus
notes: As printed: A-V-MeF3C-V-W-N-Y-F4OMe-Eva-I-Q-R-F3COO-MeF4COO-C, linker PEG4c
- dependency KD pH6.0/7.4 [8]: 10.8
- dependency koff pH6.0/7.4 [9]: 22.2
- Kd [10]: 0.529 nM
- Kd [11]: 5.73 nM

Binder: {CH2CO}-AV[NMePhe(3-Cl)]VWNY[F4aao](NH(1-deoxy-D-glucityl))IIE(NH(1-deoxy-D-glucityl))QF[NMeY]C-{PEG4c-NH2} (thioether N-15) [894_0512 (SEQ ID NO: 39)]
- Kd [12]: 1.48 nM
- dependency koff pH6.0/7.4 [13]: 25.6
- dependency KD pH6.0/7.4 [14]: 8.37
- Kd [15]: 12.4 nM

B8: 894_0591 (SEQ ID No. 117) (peptide)
peptide: AVXVXNYYXIKRYXC
modifications: not fully specified; MeF at 3; MeW at 5; Eva at 9; MeY at 14; cyclic: chloroacetylated N-terminal Ala 1 joined to Cys 15; linker PEG4c on C-terminus
notes: As printed: A-V-MeF-V-MeW-N-Y-Y-Eva-I-K-R-Y-MeY-C, linker PEG4c
- Kd [4]: 7.64 nM
- Kd [5]: 13.8 nM
- dependency KD pH6.0/7.4 [6]: 1.81
- dependency koff pH6.0/7.4 [7]: 3.29
